Results: PMC9816786

Target: Human PCSK9 (full length), 6xHis-tagged, purified (human) (UniProt Q8NBP7)
Experiment: BLI; biotinylated PCSK9 or biotinylated CHRD immobilised (0.2 μg/ml), CAP1 in solution, pH 7.5, association and dissociation 600 s

Chain of Human CAP1 (cyclase associated protein 1), 6xHis-tagged, purified (Q01518 whole entry): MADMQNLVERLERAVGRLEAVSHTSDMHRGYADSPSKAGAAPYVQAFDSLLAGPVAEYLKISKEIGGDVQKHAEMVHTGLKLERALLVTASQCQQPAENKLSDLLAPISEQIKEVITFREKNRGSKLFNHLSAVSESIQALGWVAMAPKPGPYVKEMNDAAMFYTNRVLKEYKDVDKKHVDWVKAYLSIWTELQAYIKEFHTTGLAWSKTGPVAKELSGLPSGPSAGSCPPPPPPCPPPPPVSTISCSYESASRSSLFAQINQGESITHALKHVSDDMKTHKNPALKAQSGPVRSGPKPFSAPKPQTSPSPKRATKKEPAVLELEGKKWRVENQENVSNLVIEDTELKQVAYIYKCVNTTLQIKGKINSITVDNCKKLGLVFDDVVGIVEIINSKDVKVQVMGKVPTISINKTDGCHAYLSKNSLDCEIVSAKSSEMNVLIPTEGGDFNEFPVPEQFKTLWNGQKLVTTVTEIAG

A Kd of 1.36 µM, a koff of 0.00094 s⁻¹ and a kon of 690 M⁻¹ s⁻¹ were found for “Human CAP1 (cyclase associated protein 1), 6xHis-tagged, purified (from UniProt Q01518 1-475) (natural protein)” in this work.
